Test results from US20190352352A1.
“And” between values parts separate entries of the source, which are not always exact repeats. Identical values can stand only once.

Legend:
[1] = target: TGase-polymerized intact casein (CN-TG); assay: casein-specific ELISA kit
[2] = target: TG polymers of chymotryptic WPI hydrolysate (chymotryptic-WPIH-TG); assay: β-lactoglobulin-specific competitive ELISA kit
[3] = target: TG polymers of thermolysin WPI hydrolysate (thermolysin-WPIH-TG); assay: β-lactoglobulin-specific competitive ELISA kit
[4] = target: TGase-polymerized native WPI (WPI-TG); assay: β-lactoglobulin-specific competitive ELISA kit
[5] = target: chymotryptic hydrolysate of WPI (chymotryptic-WPIH); assay: β-lactoglobulin-specific competitive ELISA kit
[6] = target: repolymerized tryptic WPI hydrolysate (tryptic-WPIH-TG); assay: β-lactoglobulin-specific competitive ELISA kit
[7] = target: thermolysin hydrolysate of WPI (thermolysin-WPIH); assay: β-lactoglobulin-specific competitive ELISA kit
[8] = target: tryptic hydrolysate of WPI (tryptic-WPIH); assay: β-lactoglobulin-specific competitive ELISA kit
[9] = target: native WPI digests (peptides released during simulated gastric and duodenal digestion of native WPI); assay: β-lactoglobulin-specific competitive ELISA kit, time course of in vitro digestion
[10] = target: thermolysin-WPIH-TG polymer digest (peptides released during simulated gastric and duodenal digestion); assay: as above

| immunoreactivity (% of casein control) (% of casein control) [1] | immunoreactivity (% of native WPI control) (% of native WPI control) [2] | immunoreactivity (% of native WPI control) (% of native WPI control) [3] | immunoreactivity (% of native WPI control) (% of native WPI control) [4] | immunoreactivity (% of native WPI control) (% of native WPI control) [5] | immunoreactivity (% of native WPI control) (% of native WPI control) [6] | immunoreactivity (% of native WPI control) (% of native WPI control) [7] | immunoreactivity (% of native WPI control) (% of native WPI control) [8] | immunoreactivity (%) [9] [%] | immunoreactivity (%) [10] | Substance |
| --- | --- | --- | --- | --- | --- | --- | --- | --- | --- | --- |
| 70 | – | – | – | – | – | – | – | – | – | antibody of the AgraQuant F.A.S.T Casein ELISA test kit (Romer Labs Inc.) |
| – | 44 | 6 | 78 | 83 | 29 to 31 | 18 | 29 | 5 to 20 | 5% and < 5% | antibody of the … β-lactoglobulin test kit (β-lactoglobulin-specific competitive ELISA kit, R-Biopharm AG) |
